Three molecules from PMC6297355 (2018) can be followed below.

The labels stand for the following.
B1: BAG3 with complete deletion of the IPV2 motif (recombinant) (natural protein)
chain: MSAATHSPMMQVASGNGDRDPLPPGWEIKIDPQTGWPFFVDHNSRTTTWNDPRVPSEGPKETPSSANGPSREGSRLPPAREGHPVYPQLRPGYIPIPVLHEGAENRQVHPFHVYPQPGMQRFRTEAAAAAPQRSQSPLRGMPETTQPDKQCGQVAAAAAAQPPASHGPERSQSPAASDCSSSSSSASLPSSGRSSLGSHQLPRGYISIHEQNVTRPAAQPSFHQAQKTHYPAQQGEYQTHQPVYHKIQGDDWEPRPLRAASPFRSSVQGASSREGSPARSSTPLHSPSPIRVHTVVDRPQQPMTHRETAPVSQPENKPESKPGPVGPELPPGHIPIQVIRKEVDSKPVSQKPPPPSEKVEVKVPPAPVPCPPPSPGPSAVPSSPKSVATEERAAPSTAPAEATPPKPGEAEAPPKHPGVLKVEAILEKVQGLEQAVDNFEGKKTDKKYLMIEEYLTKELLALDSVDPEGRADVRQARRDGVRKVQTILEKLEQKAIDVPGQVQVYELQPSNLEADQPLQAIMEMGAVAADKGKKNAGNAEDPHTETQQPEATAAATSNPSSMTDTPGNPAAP
B2: BAG3 with deletion of both IPV motifs (recombinant) (natural protein)
chain: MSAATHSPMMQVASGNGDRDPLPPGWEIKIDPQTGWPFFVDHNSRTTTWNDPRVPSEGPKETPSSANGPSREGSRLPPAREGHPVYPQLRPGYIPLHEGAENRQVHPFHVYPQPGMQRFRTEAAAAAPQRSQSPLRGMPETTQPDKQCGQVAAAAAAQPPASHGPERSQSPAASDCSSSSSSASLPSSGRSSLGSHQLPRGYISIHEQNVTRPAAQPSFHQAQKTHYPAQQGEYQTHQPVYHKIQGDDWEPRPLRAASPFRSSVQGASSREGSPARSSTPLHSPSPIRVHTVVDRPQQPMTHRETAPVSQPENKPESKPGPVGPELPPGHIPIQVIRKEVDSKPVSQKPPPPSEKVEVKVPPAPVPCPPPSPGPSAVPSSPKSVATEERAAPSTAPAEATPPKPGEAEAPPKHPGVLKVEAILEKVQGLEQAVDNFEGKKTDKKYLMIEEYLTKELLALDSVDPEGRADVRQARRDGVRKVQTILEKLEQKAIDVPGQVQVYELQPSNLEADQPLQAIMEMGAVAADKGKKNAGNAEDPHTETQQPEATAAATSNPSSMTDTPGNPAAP
B3: BAG3^WT (recombinant) (natural protein)
chain: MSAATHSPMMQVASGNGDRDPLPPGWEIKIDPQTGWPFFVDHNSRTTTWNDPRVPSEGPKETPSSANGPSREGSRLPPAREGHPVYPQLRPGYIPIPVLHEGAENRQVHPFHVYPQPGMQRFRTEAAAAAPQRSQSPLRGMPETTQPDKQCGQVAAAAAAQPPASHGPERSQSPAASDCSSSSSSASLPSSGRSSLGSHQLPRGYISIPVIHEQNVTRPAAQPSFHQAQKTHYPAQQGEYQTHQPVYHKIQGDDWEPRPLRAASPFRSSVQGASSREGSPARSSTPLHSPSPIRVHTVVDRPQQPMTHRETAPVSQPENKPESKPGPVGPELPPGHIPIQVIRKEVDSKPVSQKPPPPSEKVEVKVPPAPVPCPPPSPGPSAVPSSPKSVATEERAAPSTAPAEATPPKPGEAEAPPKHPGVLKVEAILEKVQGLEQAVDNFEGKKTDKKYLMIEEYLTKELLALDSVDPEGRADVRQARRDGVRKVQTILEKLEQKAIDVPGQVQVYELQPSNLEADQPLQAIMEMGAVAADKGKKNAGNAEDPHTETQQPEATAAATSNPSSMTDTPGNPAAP

The assay deals with HSPB1c/Hsp27c (model human HSPB fragment) (human, UniProt P04792 80-176). The assay is described as follows: ITC. (In general: In ITC the heat of successive injections is recorded.)
Sequence of HSPB1c/Hsp27c (model human HSPB fragment) (P04792 80-176): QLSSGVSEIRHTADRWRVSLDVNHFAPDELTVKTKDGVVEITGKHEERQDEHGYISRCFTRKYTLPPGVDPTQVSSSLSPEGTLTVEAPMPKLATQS
For B1, the Kd (as a rule, the equilibrium constant for the complex coming apart) stood at 2000 nM.
For B2 the value was more than 100000 nM; for B3, 490 nM.
